Test system: hPSCs cultured in Gel-3D
Assay: hPSC amniogenesis assay (Gel-3D culture), requirement of BMP-SMAD signalling
Type: cell-based, human
Excerpt: Implantation-Like Niche Described herein is a biomimicry approach to engineer a biomaterial-based in vitro hPSC culture system for efficient generation of early human amniotic tissue. Specifically, a biomimetic implantation-like niche for cultured hPSCs was constructed by implementing two major biophysical factors seen in the in vivo amniogenic niche: a three-dimensional (3D) extracellular matrix (ECM) that is provided by the basement membrane surrounding the epiblast during implantation 1l; and a soft tissue bed provided by the uterine wall and trophoblast to support the developing amnion (FIG. 1a,b). mTeSR1 medium and basement membrane matrix (Geltrex) was used to render the culture permissive for pluripotency maintenance. In this culture system, H9 human embryonic stem cells (hESCs) were plated as single cells at 30,000 cells cm^2 onto a thick, soft gel bed of Geltrex (with thickness 100 μm, bulk Young's modulus 900 Pa, coated on a glass coverslip), in mTeSR1 medium supplemented with the ROCK inhibitor Y2763212 (FIG. 1b). At 24 h (day 1), medium containing Y27632 was replaced by fresh mTeSR1 supplemented with 4% (v/v) Geltrex to establish a 3D implantation-like niche (referred to henceforth as the ‘Gel-3D’ condition). To assess the effect of ECM dimensionality and matrix rigidity, respectively, several modifications of this Gel-3D condition were tested (FIG. 1b). First, the Geltrex supplement was excluded from the medium, with the gel bed retained (referred to henceforth as the ‘Gel-2D’ condition). Second, the soft gel bed was replaced by a 1% Geltrex-coated glass coverslip (referred to henceforth as the ‘Glass-3D’ condition). Finally, a standard 2D culture, using a 1% Geltrex-coated glass coverslip (referred to henceforth as the ‘Glass-2D’ condition), was examined as a control that maintains hPSC self-renewal. Culture medium was replenished daily. Analyses were performed at day 5 unless otherwise noted (FIG. 1b). […]

## c1ccc2c(-c3cnn4cc(-c5ccc(N6CCNCC6)cc5)cnc34)ccnc2c1 [LDN193189, reference compound]
hPSCs cultured in Gel-3D, treatment on day 2 alone or on both days 2 and 3, FIG. 5d
  hPSC-amnion development: inhibited hPSC-amnion development

B1: NOGGIN: a protein that antagonizes BMP2/4/7 (protein, UniProt Q13253 28-232, looked up)
Noggin: QHYLHIRPAPSDNLPLVDLIEHPDPIFDPKEKDLNETLLRSLLGGHYDPGFMATSPPEDRPGGGGGAAGGAEDLAELDQLLRQRPSGAMPSEIKGLEFSEGLAQGKKQRLSKKLRRKLQMWLWSQTFCPVLYAWNDLGSRFWPRYVKVGSCFSKRSCSVPEGMVCKPSKSVHLTVLRWRCQRRGGQRCGWIPIQYPIISECKCSC
hPSCs in Gel-3D, treatment with NOGGIN
  development of hPSC-amnion: inhibited
Restatement in Example 2 of the BMP-SMAD requirement for amniogenesis
  amniogenic differentiation: inhibit amniogenic differentiation

Source: US12558381B2, “Development of amnion-like tissue from human pluripotent stem cells” (THE REGENTS OF THE UNIVERSITY OF MICHIGAN, priority 2016, dated 2026)
